Measured values: US20240336681A1 (LUDWIG MAXIMILIANS UNIVERSIT T M NCHEN, published 2024)

Experiments:
[1] = target: recombinant C-terminally His-tagged human CD47 (extracellular domain) (human) (UniProt Q08722); assay: SPR, Biacore X100; construct captured by anti-human Fc on CM5 chip, human CD47 extracellular domain as analyte, 1:1 fit
human CD47 on cells [2] = target: T1, human CD47 on cells (human, UniProt Q08722 19-323); assay: flow cytometry on CD47-positive Expi293 cells, 50 nM antibody; MFI of the antibody over MFI of the isotype control
T1 construct: also called CD47 on Molm-13, OVCAR-3, Suit-2 MSLN, HL-60 cells, red blood cells and CD47-transfected CHO cells
Protocol: (§1) Initially, binding of anti-hCD47 IgG4, anti-hCD47 IgG1 antibodies and Fab domains were measured on CD47-expressing cells by flow cytometry. Cells were stained with 50 nM of antibody followed by staining with a secondary fluorescently labelled anti-human IgG Fc or light-chain antibody, and analyzed by flow cytometry. Binding was measured by calculating the median fluorescence intensity (MFI) ratio, by dividing MFI of the antibody by the MFI of the isotype control.

human CD47 on cells [3] = target: T1, human CD47 on cells; assay: flow cytometry on CD47-positive Expi293 cells; MFI of the antibody over MFI of the isotype control
Protocol: as §1

[4] = target: T2, recombinant C-terminally His-tagged human CD47 (extracellular domain) (human, UniProt Q08722 19-141); assay: SPR, Biacore X100; construct captured by anti-human Fc on CM5 chip, human CD47 extracellular domain as analyte, 1:1 fit
T2 construct: also called recombinantly expressed human CD47 extracellular domain
Protocol: Surface Plasmon Resonance (SPR) was used in addition to analyse binding of the different protein constructs to recombinantly expressed CD47 and to determine their affinity. Association (Kₒₙ) and dissociation (Koff) rate constants were determined by SPR using a Biacore™ X-100 (Cytiva). Using the Human antibody capture kit an anti-human Fc antibody was immobilized on a CM5 sensor chip in a covalent manner using the Amine coupling Kit according to manufacturer's instructions. Humanized anti-hCD47 IgGs were injected as ligand to reach a surface coverage of approximately 100 RU-400 RU. Recombinantly expressed human CD47 extracellular domain was used as analyte and injected in increasing concentrations (e. g. from 3.9 to 1000 nM), with standard association time of 120 s and dissociation time of 600 s. Experiments were performed in multi-cycle kinetics runs, with regeneration between sample injection with the respective regeneration buffer (3M MgCl2 for the human antibody capture kit). All reagents were diluted in HBS-EP+ buffer (Cytiva). Data are fit to a simple 1:1 interaction model using the global data analysis option available within BiaEvaluation 2.0.1 software. The dissociation constant (KD) was used as a value for the affinity and was calculated from the ratio between Koff and Kₒₙ.

recombinant C-terminally His-tagged human CD47 (extracellular domain) (human), sequence (Q08722 19-141): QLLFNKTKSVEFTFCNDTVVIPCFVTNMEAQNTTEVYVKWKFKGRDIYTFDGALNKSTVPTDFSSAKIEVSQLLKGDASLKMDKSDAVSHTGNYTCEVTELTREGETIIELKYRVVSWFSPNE
T1 sequence (Q08722 19-323): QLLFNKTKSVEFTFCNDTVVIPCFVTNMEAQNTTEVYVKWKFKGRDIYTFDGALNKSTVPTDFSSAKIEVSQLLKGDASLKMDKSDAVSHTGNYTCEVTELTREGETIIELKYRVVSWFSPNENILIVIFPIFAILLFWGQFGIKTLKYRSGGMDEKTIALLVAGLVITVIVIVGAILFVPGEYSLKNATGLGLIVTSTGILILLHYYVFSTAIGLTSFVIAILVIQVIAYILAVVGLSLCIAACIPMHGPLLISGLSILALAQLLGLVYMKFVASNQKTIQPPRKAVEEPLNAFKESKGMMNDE
T2 sequence (Q08722 19-141): as the sequence (Q08722 19-141) above

Kd [1] [nM]	MFI ratio (human CD47 on cells [2])	Kd [4] [nM]	Binder	binding result (human CD47 on cells [3])
–	1.07	–	2D6-004 (antibody, IgG4, V domains shown, also called VH1/VL4) VH: QVELVQSGAEVKKPGSSVKVSCKASGGTFPSYDINWVRQAPGQGLEWMGWIYPRDGSPKYNEKFKGRVTITADESTSTAYMELSSLRSEDTAVYYCARSVYYGTQFAYWGQGTLVTVSS VL: DIVMTQSPSSLSASVGDRVTITCKSSQSLLNSRTRKNYLAWYQQKPGKAPKLLIYWASTRDSGVPDRFSGSGSGTDFTLTISSLQPEDFATYYCKQSFNLVTFGQGTKVEIK	no binding (tested: 50 nM (not on the sheet))
–	1.08	–	2D6-010 (antibody, IgG4, V domains shown, also called VH3/VL2) VH: QVQLVESGGGLVQPGGSLRLSCAASGYTFTSYDINWVRQAPGKGLEWVGWIYPRDGSPKYNEKFKGRFTISADTSKNTAYLQMNSLRAEDTAVYYCARSVYYGTQFAYWGQGTLVTVSS VL: DIVMTQSPSSLAVSLGERVTMSCKSSQSLLNSRTRKNYLAWYQQKPGQPPKLLIYWASTRDSGVPDRFSGSGSGTDFTLTISSLQAEDVAVYYCKQSFNLVTFGGGTKLEIK	no binding (tested: 50 nM (not on the sheet))
–	1.03	–	2D6-014 (antibody, IgG4, V domains shown, also called VH4/VL2) VH: QVQLVESGGGLVQPGGSLRLSCAASGYTFPSYDINWVRQAPGKGLEWVGWIYPRDGSPKYNEKFKGRFTISADTSKNTAYLQMNSLRAEDTAVYYCARSVYYGTQFAYWGQGTLVTVSS VL: DIVMTQSPSSLAVSLGERVTMSCKSSQSLLNSRTRKNYLAWYQQKPGQPPKLLIYWASTRDSGVPDRFSGSGSGTDFTLTISSLQAEDVAVYYCKQSFNLVTFGGGTKLEIK	no binding (tested: 50 nM (not on the sheet))
–	1.15	–	2D6-001 (antibody, IgG4, V domains shown, also called VH1/VL1) VH: QVELVQSGAEVKKPGSSVKVSCKASGGTFPSYDINWVRQAPGQGLEWMGWIYPRDGSPKYNEKFKGRVTITADESTSTAYMELSSLRSEDTAVYYCARSVYYGTQFAYWGQGTLVTVSS VL: DIVLTQSPSSLSASVGDRVTMSCKSSQSLLNSRTRKNYLAWYQQKPGKAPKLLIYWASTRDSGVPSRFSGSGSGTDFTLTISSLQPEDIATYYCKQSFNLVTFGGGTKLEIK	no binding (tested: 50 nM (not on the sheet))
–	1.06	–	2D6-003 (antibody, IgG4, V domains shown, also called VH1/VL3) VH: QVELVQSGAEVKKPGSSVKVSCKASGGTFPSYDINWVRQAPGQGLEWMGWIYPRDGSPKYNEKFKGRVTITADESTSTAYMELSSLRSEDTAVYYCARSVYYGTQFAYWGQGTLVTVSS VL: DIQMTQSPSSLSASVGDRVTITCKSSQSLLNSRTRKNYLAWYQQKPGKAPKLLIYWASTRDSGVPSRFSGSGSGTDFTLTISSLQPEDFATYYCKQSFNLVTFGQGTKVEIK	no binding (tested: 50 nM (not on the sheet))
–	1.05	–	2D6-013 (antibody, IgG4, V domains shown, also called VH4/VL1) VH: QVQLVESGGGLVQPGGSLRLSCAASGYTFPSYDINWVRQAPGKGLEWVGWIYPRDGSPKYNEKFKGRFTISADTSKNTAYLQMNSLRAEDTAVYYCARSVYYGTQFAYWGQGTLVTVSS VL: DIVLTQSPSSLSASVGDRVTMSCKSSQSLLNSRTRKNYLAWYQQKPGKAPKLLIYWASTRDSGVPSRFSGSGSGTDFTLTISSLQPEDIATYYCKQSFNLVTFGGGTKLEIK	no binding (tested: 50 nM (not on the sheet))

Further lines, the binder ahead of its results:

Binder	Kd [1] [nM]	MFI ratio (human CD47 on cells [2])	Kd [4] [nM]	binding result (human CD47 on cells [3])
2D6-046 (bispecific antibody, part only; not given: linkers and anti-TAA IgG1 chains, V domains shown, not shown: another chain or arm of the molecule; large carriers; small tags and cut ends) VH: QVELVQSGPEVKKPGSSVKVSCKASGYTFPSYDINWVRQRPGQGLEWMGWIYPRDGSPKYNEKFKGRVTITADTSTSTAYMELHSLRSEDTAVYYCARSVYYGTQFAYWGQGTLVTVSA VL: DIVLTQSPSSLAVSLGERVTMSCKSSQSLLNSRTRKNYLAWYQQKPGQPPKLLIYWASTRDSGVPDRFSGSGSGTDFTLTISSLQAEDVAVYYCQQSFNLVTFGGGTKLEIK	406	–	–	–
2D6-006 (antibody, IgG4, V domains shown, also called VH2/VL2) VH: QVELVQSGPEVKKPGSSVKVSCKASGYTFPSYDINWVRQRPGQGLEWMGWIYPRDGSPKYNEKFKGRVTITADTSTSTAYMELHSLRSEDTAVYYCARSVYYGTQFAYWGQGTLVTVSA VL: DIVMTQSPSSLAVSLGERVTMSCKSSQSLLNSRTRKNYLAWYQQKPGQPPKLLIYWASTRDSGVPDRFSGSGSGTDFTLTISSLQAEDVAVYYCKQSFNLVTFGGGTKLEIK	–	3.12	–	–
2D6-002 (antibody, IgG4, V domains shown, also called VH1/VL2) VH: QVELVQSGAEVKKPGSSVKVSCKASGGTFPSYDINWVRQAPGQGLEWMGWIYPRDGSPKYNEKFKGRVTITADESTSTAYMELSSLRSEDTAVYYCARSVYYGTQFAYWGQGTLVTVSS VL: DIVMTQSPSSLAVSLGERVTMSCKSSQSLLNSRTRKNYLAWYQQKPGQPPKLLIYWASTRDSGVPDRFSGSGSGTDFTLTISSLQAEDVAVYYCKQSFNLVTFGGGTKLEIK	–	1.06	–	no binding (tested: 50 nM (not on the sheet))
2D6-000 (antibody, V domains shown, Constant regions come from the vectors pFUSE-CHIg-hG4 and pFUSE2-CLIg-hk; also called anti-CD47 IgG4 (2D6-000)) VH: QVQLQQSGPELVKPGTSVTLSCKASGYTFPSYDINWMKQRPGQGLEWIGWIYPRDGSPKYNEKFKGKATLTVDTSSSTAYMELHSLTSEDSAVYFCARSVYYGTQFAYWGQGTLVTVSA VL: DIVMSQSPSSLAVSAGEKVTMSCKSSQSLLNSRTRKNYLAWYQQKPGQSPKLLIYWASTRDSGVPDRFTGSGSGTDFTLTISSVQAEDLAVYYCKQSFNLVTFGAGTKLELK	–	–	56.1	–
2D6-009 (antibody, IgG4, V domains shown) VH: QVQLVESGGGLVQPGGSLRLSCAASGYTFTSYDINWVRQAPGKGLEWVGWIYPRDGSPKYNEKFKGRFTISADTSKNTAYLQMNSLRAEDTAVYYCARSVYYGTQFAYWGQGTLVTVSS VL: DIVLTQSPSSLSASVGDRVTMSCKSSQSLLNSRTRKNYLAWYQQKPGKAPKLLIYWASTRDSGVPSRFSGSGSGTDFTLTISSLQPEDIATYYCKQSFNLVTFGGGTKLEIK	–	1.58	–	–
2D6-037 (bispecific antibody, part only; not given: linkers and anti-TAA IgG1 chains, V domains shown, not shown: another chain or arm of the molecule; large carriers; small tags and cut ends) VH: QVELVQSGPEVKKPGSSVKVSCKASGYTFPSYDINWVRQRPGQGLEWMGWIYPRFGSPKYNEKFKGRVTITADTSTSTAYMELHSLRSEDTAVYYCARSVYYGTQFAYWGQGTLVTVSA VL: DIVLTQSPSSLAVSLGERVTMSCKSSQSLLNSRTRKNYLAWYQQKPGQPPKLLIYWASTRDSGVPDRFSGSGSGTDFTLTISSLQAEDVAVYYCKQSFNLVTFGGGTKLEIK	176	–	–	–
2D6-036 (bispecific antibody, part only; not given: linkers and anti-TAA IgG1 chains, V domains shown, not shown: another chain or arm of the molecule; large carriers; small tags and cut ends) VH: QVELVQSGPEVKKPGSSVKVSCKASGYTFPSYDINWVRQRPGQGLEWMGWIIPRDGSPKYNEKFKGRVTITADTSTSTAYMELHSLRSEDTAVYYCARSVYYGTQFAYWGQGTLVTVSA VL: DIVLTQSPSSLAVSLGERVTMSCKSSQSLLNSRTRKNYLAWYQQKPGQPPKLLIYWASTRDSGVPDRFSGSGSGTDFTLTISSLQAEDVAVYYCKQSFNLVTFGGGTKLEIK	1110	–	–	–
2D6-008 (antibody, IgG4, V domains shown, also called VH2/VL4) VH: QVELVQSGPEVKKPGSSVKVSCKASGYTFPSYDINWVRQRPGQGLEWMGWIYPRDGSPKYNEKFKGRVTITADTSTSTAYMELHSLRSEDTAVYYCARSVYYGTQFAYWGQGTLVTVSA VL: DIVMTQSPSSLSASVGDRVTITCKSSQSLLNSRTRKNYLAWYQQKPGKAPKLLIYWASTRDSGVPDRFSGSGSGTDFTLTISSLQPEDFATYYCKQSFNLVTFGQGTKVEIK	–	3.29	–	–
2D6-007 (antibody, IgG4, V domains shown, also called VH2/VL3) VH: QVELVQSGPEVKKPGSSVKVSCKASGYTFPSYDINWVRQRPGQGLEWMGWIYPRDGSPKYNEKFKGRVTITADTSTSTAYMELHSLRSEDTAVYYCARSVYYGTQFAYWGQGTLVTVSA VL: DIQMTQSPSSLSASVGDRVTITCKSSQSLLNSRTRKNYLAWYQQKPGKAPKLLIYWASTRDSGVPSRFSGSGSGTDFTLTISSLQPEDFATYYCKQSFNLVTFGQGTKVEIK	–	3.92	–	–
2D6-011 (antibody, IgG4, V domains shown, also called VH3/VL3) VH: QVQLVESGGGLVQPGGSLRLSCAASGYTFTSYDINWVRQAPGKGLEWVGWIYPRDGSPKYNEKFKGRFTISADTSKNTAYLQMNSLRAEDTAVYYCARSVYYGTQFAYWGQGTLVTVSS VL: DIQMTQSPSSLSASVGDRVTITCKSSQSLLNSRTRKNYLAWYQQKPGKAPKLLIYWASTRDSGVPSRFSGSGSGTDFTLTISSLQPEDFATYYCKQSFNLVTFGQGTKVEIK	–	4.51	–	–
2D6-012 (antibody, IgG4, V domains shown, also called VH3/VL4) VH: QVQLVESGGGLVQPGGSLRLSCAASGYTFTSYDINWVRQAPGKGLEWVGWIYPRDGSPKYNEKFKGRFTISADTSKNTAYLQMNSLRAEDTAVYYCARSVYYGTQFAYWGQGTLVTVSS VL: DIVMTQSPSSLSASVGDRVTITCKSSQSLLNSRTRKNYLAWYQQKPGKAPKLLIYWASTRDSGVPDRFSGSGSGTDFTLTISSLQPEDFATYYCKQSFNLVTFGQGTKVEIK	–	4.1	–	–
